# Experimental data from patent publication US7358353B2, “Nucleic acid and corresponding protein named 158P1D7 useful in the treatment and detection of bladder and other cancers” (Agensys, Inc., priority 2000, dated 2008).
# Biological target: T1, 158P1D7 protein (Homo sapiens, UniProt Q9H5Y7)
# T1 construct: from tissue; host or cells: formalin fixed, paraffin embedded tumor tissue from patients (bladder transitional cell carcinoma, breast ductal carcinoma, lung carcinoma)
# Test: Immunohistochemistry of cancer patient specimens with anti-158P1D7 MAb (Table LVIII)
# Source text: FIG. 36. Detection of 158P1D7 protein by immunohistochemistry in various cancer patient specimens. Tissue was obtained from patients with bladder transitional cell carcinoma, breast ductal carcinoma and lung carcinoma. […] (C) breast infiltrating ductal carcinoma, moderately differentiated, (D) breast infiltrating ductal carcinoma, moderate to poorly differentiated, (E) lung squamous cell carcinoma, (F) lung adenocarcinoma, well differentiated.
# The sections were dewaxed, rehydrated and treated with antigen retrieval solution (Antigen Retrieval Citra Solution; BioGenex, 4600 Norris Canyon Road, San Ramon, Calif., 94583) at high temperature. Sections were then incubated in mouse monoclonal anti-158P1D7 antibody, M15-68(2)22, for 3 hours. The slides were washed three times in buffer and further incubated with DAKO EnVision+™ peroxidase-conjugated goat anti-mouse immunoglobulin secondary antibody (DAKO Corporation, Carpenteria, Calif.) for 1 hour. The sections were then washed in buffer, developed using the DAB kit (SIGMA Chemicals), counterstained using hematoxylin, and analyzed by bright field microscopy. […] 49.3% of bladder transitional cell carcinoma samples tested were positive for 158P1D7 (Table LVIII).
# [1] = Breast Carcinoma patient specimens
# [2] = Lung Carcinoma patient specimens
substance,measurement,setting,value
158P1D7 protein,% No. Positive,Bladder TCC patient specimens,49.3%
same,Number Positive,Bladder TCC patient specimens,35
same,% No. Positive,[1],90.9%
same,Number Positive,[1],11
same,% No. Positive,[2],23.1%
same,Number Positive,[2],26
